Paper PMC4188797 (Neuropharmacology, 2014)

Target: the molecule itself
Test: SDS-PAGE and immunoblot of dimer bands in subcellular fractions

B1: metabotropic glutamate receptor 1 splice variant mGluR1b (endogenous, rat brain) (receptor, rat (endogenous in rat brain), UniProt P23385-2 19-906, looked up)
chain: LPRMPDRKVLLAGASSQRSVARMDGDVIIGALFSVHHQPPAEKVPERKCGEIREQYGIQRVEAMFHTLDKINADPVLLPNITLGSEIRDSCWHSSVALEQSIEFIRDSLISIRDEKDGLNRCLPDGQTLPPGRTKKPIAGVIGPGSSSVAIQVQNLLQLFDIPQIAYSATSIDLSDKTLYKYFLRVVPSDTLQARAMLDIVKRYNWTYVSAVHTEGNYGESGMDAFKELAAQEGLCIAHSDKIYSNAGEKSFDRLLRKLRERLPKARVVVCFCEGMTVRGLLSAMRRLGVVGEFSLIGSDGWADRDEVIEGYEVEANGGITIKLQSPEVRSFDDYFLKLRLDTNTRNPWFPEFWQHRFQCRLPGHLLENPNFKKVCTGNESLEENYVQDSKMGFVINAIYAMAHGLQNMHHALCPGHVGLCDAMKPIDGRKLLDFLIKSSFVGVSGEEVWFDEKGDAPGRYDIMNLQYTEANRYDYVHVGTWHEGVLNIDDYKIQMNKSGMVRSVCSEPCLKGQIKVIRKGEVSCCWICTACKENEFVQDEFTCRACDLGWWPNAELTGCEPIPVRYLEWSDIESIIAIAFSCLGILVTLFVTLIFVLYRDTPVVKSSSRELCYIILAGIFLGYVCPFTLIAKPTTTSCYLQRLLVGLSSAMCYSALVTKTNRIARILAGSKKKICTRKPRFMSAWAQVIIASILISVQLTLVVTLIIMEPPMPILSYPSIKEVYLICNTSNLGVVAPVGYNGLLIMSCTYYAFKTRNVPANFNEAKYIAFTMYTTCIIWLAFVPIYFGSNYKIITTCFAVSLSVTVALGCMFTPKMYIIIAKPERNVRSAFTTSDVVRMHVGDGKLPCRSNTFLNIFRRKKPGAGNAKKRQPEFSPSSQCPSAHAQL
stoichiometry N: 2
